Test results reported in article PMC12514245, “Impaired migration and lung invasion of human melanoma by a novel small molecule targeting the transmembrane domain of death receptor p75^NTR” (EMBO Molecular Medicine, 2025).

B1: p75^NTR TMD-AraTM chimera, wild type (MBP - p75^NTR TMD - AraC) [human] / itself (parent)
chain: NLIPVYCSILAAVVVGLVAYIAFKRW

Variants of: B1
Experiment: AraTM assay
Details: with itself, 100% = WT TMD without drug, read off a plot

| Variant | percent of parent (7.5 µM Div17E5) | percent of parent (15 µM Div17E5) | percent of parent (20 µM Div17E5) | percent of parent (50 µM Div17E5) | percent of parent (no drug (0 µM Div17E5)) |
| --- | --- | --- | --- | --- | --- |
| NLIPAYCSILAAVVVGLVAYIAFKRW [chain 1 V5A] | 92% | 93% | 95% | 92% | 97% |
| NLIGVYCSILAAVVVGLVAYIAFKRW [chain 1 P4G] | 68% | 65% | 55% | 57% | 100% |
| NLAPVYCSILAAVVVGLVAYIAFKRW [chain 1 I3A] | 97% | 97% | 97% | 100% | 100% |
